Assay results from publication PMC8234983, “Unravelling the Complex Denaturant and Thermal-Induced Unfolding Equilibria of Human Phenylalanine Hydroxylase” (International Journal of Molecular Sciences, 2021).

B1: full-length human phenylalanine hydroxylase (PAHt, Met1-Lys452) (enzyme, UniProt P00439 1-452, looked up)
chain: MSTAVLENPGLGRKLSDFGQETSYIEDNCNQNGAISLIFSLKEEVGALAKVLRLFEENDVNLTHIESRPSRLKKDEYEFFTHLDKRSLPALTNIIKILRHDIGATVHELSRDKKKDTVPWFPRTIQELDRFANQILSYGAELDADHPGFKDPVYRARRKQFADIAYNYRHGQPIPRVEYMEEEKKTWGTVFKTLKSLYKTHACYEYNHIFPLLEKYCGFHEDNIPQLEDVSQFLQTCTGFRLRPVAGLLSSRDFLGGLAFRVFHCTQYIRHGSKPMYTPEPDICHELLGHVPLFSDRSFAQFSQEIGLASLGAPDEYIEKLATIYWFTVEFGLCKQGDSIKAYGAGLLSSFGELQYCLSEKPKLLPLELEKTAIQNYTVTEFQPLYYVAESFNDAKEKVRNFAATIPRPFSVRYDPYTQRIEVLDNTQQLKILADSINSEIGILCSALQKIK
notes: human phenylalanine hydroxylase (EC 1.14.16.1), full-length construction, residues Met 1-Lys 452; No Fe(II) was added to the recombinant protein; also called PAHt(1-452); full-length PAH
B2: double truncated human phenylalanine hydroxylase (PAHd, Gly103-Thr427; ΔN1-102/ΔC428-452) (domain or fragment, UniProt P00439 103-427, looked up)
chain: GATVHELSRDKKKDTVPWFPRTIQELDRFANQILSYGAELDADHPGFKDPVYRARRKQFADIAYNYRHGQPIPRVEYMEEEKKTWGTVFKTLKSLYKTHACYEYNHIFPLLEKYCGFHEDNIPQLEDVSQFLQTCTGFRLRPVAGLLSSRDFLGGLAFRVFHCTQYIRHGSKPMYTPEPDICHELLGHVPLFSDRSFAQFSQEIGLASLGAPDEYIEKLATIYWFTVEFGLCKQGDSIKAYGAGLLSSFGELQYCLSEKPKLLPLELEKTAIQNYTVTEFQPLYYVAESFNDAKEKVRNFAATIPRPFSVRYDPYTQRIEVLDNT
notes: lacks most of the regulatory and multimerization domains; essentially the catalytic domain; Residues 103-117 are missing in the 1J8T PDB file; also called PAHd(103-427); truncated PAHd

Legend:
[1] = target: the molecule itself; test: AUC; sedimentation velocity, 25 °C, 45,000 rpm, 8 µM subunit, 0 M urea (native conditions); c(s) analysis
P00439 [2] = test: AUC; sedimentation velocity, 25 °C, 45,000 rpm, 8 µM subunit, incubated overnight in 5.4 M urea; c(s) analysis
P00439 [3] = test: AUC; sedimentation velocity, 25 °C, 45,000 rpm, 8 µM subunit, incubated overnight in 7.4 M urea; c(s) analysis
P00439 [4] = test: AUC; sedimentation velocity, 25 °C, 45,000 rpm, 8 µM subunit, 0 M urea (native conditions); c(s) analysis

| Protein | stoichiometry N [1] | percent of total protein signal as fast-sedimenting polydisperse species (aggregates) (P00439 [2]) | percent of total signal as aggregates (P00439 [3]) | percent of total signal as aggregates (P00439 [4]) |
| --- | --- | --- | --- | --- |
| B1 | 4 | multiple species of fast sedimentation at a broad range of 10.2–27.9 S representing 98% of the total protein signal | The rest of the protein signal at this high urea concentration, 13%, corresponds to aggregates of fast sedimentation | aggregates (6% total) |
| B2 | 2 | from 9.6 S to 92.4 S and accounting for 98.3% of the total protein signal | The remaining 40% of the signal are species with sedimentation coefficients from 5.4 S to 18.8 S representing aggregates | – |
